These results are taken from article PMC2413427, “Free Brick1 Is a Trimeric Precursor in the Assembly of a Functional Wave Complex” (PLoS ONE, 2008).

The target of data set [1] is human Brk1, in vitro translated, N-terminally tagged (PC-Brk1; the other copies in the self-association experiments are SBP-, Flag- or HA-Brk1) (human) (UniProt Q8WUW1). Description: co-IP; PC-Brk1, SBP-Brk1 and HA-Wave2 co-translated in vitro; PC immunoprecipitation, then SBP precipitation or HA immunoprecipitation as a second step.
Data set [2] concerns the molecule itself. Description: cross-linking; pooled SEC fractions of partially purified free untagged Brk1; glutaraldehyde 0.2% final or 2-fold dilutions, 50 mM Tris pH 8.0, 10 min, room temperature; Brk1 western blot. For orientation: A western blot detects proteins with antibodies after separation by electrophoresis.
Data set [3] deals with the molecule itself. Description: co-IP; PC-, SBP-, Flag- and HA-Brk1 co-produced by in vitro translation with 35S-methionine; three sequential native precipitations (PC eluted with EDTA, SBP on streptavidin eluted with biotin, then Flag or HA); autoradiography.

As a reminder, the stoichiometry N is the number of molecules, sites or subunits per partner or assembly. In turn, “HA-Wave2, in vitro translated (from UniProt Q9Y6W5 1-498) (natural protein)” displayed a stoichiometry N in data set [1] of 1.

B1: untagged Brk1 (free Brk1), partially purified from transfected 293T cells (natural protein, human, UniProt Q8WUW1 1-75, looked up)
chain: MAGQEDPVQREIHQDWANREYIEIITSSIKKIADFLNSFDMSCRSRLATLNEKLTALERRIEYIEARVTKGETLT
notes: Brick1 (Brk1, Hspc300), human, untagged cDNA; printed mass 8.7 kDa; that is not this construct; The fraction holds many other proteins but no Wave complex; also called Brick1; Hspc300; source: 293T, transfected with pCS2-Brk1, partially purified (35%-55% ammonium sulfate cut, SEC on superdex-200)
Turning to B1, the “stoichiometry N” value in data set [2] came out at 3.

B2: human Brk1, in vitro translated, N-terminally tagged (PC-Brk1; the other copies in the self-association experiments are SBP-, Flag- or HA-Brk1) (natural protein, UniProt Q8WUW1 1-75, looked up)
chain: B1 chain
notes: Brick1 (Brk1, Hspc300), human; One molecule stands for the differently tagged copies of human Brk1 that were co-translated; also called SBP-Brk1; Flag-Brk1; source: in vitro translated (TnT, rabbit reticulocyte lysate, 35S-methionine), pCS2 plasmid; not shown: PC, N-terminal, kept
B2: the “stoichiometry N” value in data set [3] amounted to 3.
